Results: US20200085917A1

Assays:
Experiment in all cases: GST pull-down, LC-MS/MS
[1] = molecular target: 1700020C11Rik_IPI:IPI00315908.1 (mouse)
[2] = molecular target: 2900010M23Rik_IPI:IPI00133350.1 (mouse)
[3] = molecular target: Acad8_IPI:IPI00274222.2 (mouse) (UniProt Q9D7B6)
[4] = molecular target: Acadsb_IPI:IPI00119842.1 (mouse) (UniProt Q9DBL1)
[5] = molecular target: Chchd4_IPI:IPI00124389.1 (mouse) (UniProt Q8VEA4)
[6] = molecular target: Coq5_IPI:IPI00379695.2 (mouse) (UniProt Q9CXI0)
[7] = molecular target: Dci_IPI:IPI00114416.1 (mouse) (UniProt P42125)
[8] = molecular target: Etfa_IPI:IPI00116753.4 (mouse) (UniProt Q99LC5)
[9] = molecular target: Gm6180_IPI:IPI00409405.2 (mouse)
[10] = molecular target: Gnao1_IPI:IPI00115546.4 (mouse) (UniProt P18872)
[11] = molecular target: Gnb3_IPI:IPI00116938.1 (mouse) (UniProt Q61011)
[12] = molecular target: Gstk1_IPI:IPI00121051.3 (mouse) (UniProt Q9DCM2)
[13] = molecular target: Hmgcl_IPI:IPI00379694.4 (mouse) (UniProt P38060)
[14] = molecular target: Hsdl1_IPI:IPI00225301.1 (mouse) (UniProt Q8BTX9)
[15] = molecular target: Idh3g_IPI:IPI00109169.1 (mouse) (UniProt P70404)
[16] = molecular target: Lyrm7_IPI:IPI00117832.1 (mouse) (UniProt Q9DA03)
[17] = molecular target: Mpst_IPI:IPI00604945.2 (mouse) (UniProt Q99J99)
[18] = molecular target: Mtch1_IPI:IPI00137173.1 (mouse) (UniProt Q791T5)
[19] = molecular target: Nsf_IPI:IPI00656325.2 (mouse) (UniProt P46460)
[20] = molecular target: Nubpl_IPI:IPI00317709.1 (mouse) (UniProt Q9CWD8)
[21] = molecular target: Nup210l_IPI:IPI00356451.5 (mouse) (UniProt Q9D2F7)
[22] = molecular target: Oxa1l_IPI:IPI00308001.1 (mouse) (UniProt Q8BGA9)
[23] = molecular target: Pnkd_IPI:IPI00187405.4 (mouse) (UniProt Q69ZP3)
[24] = molecular target: Ppdpf_IPI:IPI00133078.1 (mouse) (UniProt Q9CR37)
[25] = molecular target: Prdx3_IPI:IPI00116192.1 (mouse) (UniProt P20108)
[26] = molecular target: Pycr2_IPI:IPI00123278.1 (mouse) (UniProt Q922Q4)
[27] = molecular target: Rdh14_IPI:IPI00112377.1 (mouse) (UniProt Q9ERI6)
[28] = molecular target: Sfxn1_IPI:IPI00115454.3 (mouse) (UniProt Q99JR1)
[29] = molecular target: Slc25a10_IPI:IPI00317074.3 (mouse) (UniProt Q9QZD8)
[30] = molecular target: Slc6a11_IPI:IPI00136867.1 (mouse) (UniProt P31650)
[31] = molecular target: Suclg2_IPI:IPI00459487.3 (mouse) (UniProt Q9Z2I8)
[32] = molecular target: Tim23 (endogenous, mouse forebrain mitochondria) (mouse) (UniProt Q9WTQ8)
[33] = molecular target: Ywhaz_IPI:IPI00116498.1 (mouse) (UniProt P63101)
Sequence of Ywhaz_IPI:IPI00116498.1 (mouse) (P63101 whole entry): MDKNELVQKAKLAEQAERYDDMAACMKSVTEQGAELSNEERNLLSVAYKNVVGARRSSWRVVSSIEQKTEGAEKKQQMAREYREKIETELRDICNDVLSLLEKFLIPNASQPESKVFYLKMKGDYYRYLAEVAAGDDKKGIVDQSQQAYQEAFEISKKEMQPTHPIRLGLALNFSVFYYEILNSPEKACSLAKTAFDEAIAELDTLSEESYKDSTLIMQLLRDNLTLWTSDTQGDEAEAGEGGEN

Sequence of Pycr2_IPI:IPI00123278.1 (mouse) (Q922Q4 2-320 limits assumed): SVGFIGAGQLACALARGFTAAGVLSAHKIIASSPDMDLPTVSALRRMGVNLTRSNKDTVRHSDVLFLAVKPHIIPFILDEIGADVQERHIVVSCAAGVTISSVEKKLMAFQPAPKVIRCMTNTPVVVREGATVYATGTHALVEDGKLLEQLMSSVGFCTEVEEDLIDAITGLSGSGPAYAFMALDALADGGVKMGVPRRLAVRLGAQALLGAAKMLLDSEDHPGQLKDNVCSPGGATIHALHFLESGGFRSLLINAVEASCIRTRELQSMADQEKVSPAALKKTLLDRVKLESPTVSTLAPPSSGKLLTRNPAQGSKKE
Sequence of Gstk1_IPI:IPI00121051.3 (mouse) (Q9DCM2 whole entry): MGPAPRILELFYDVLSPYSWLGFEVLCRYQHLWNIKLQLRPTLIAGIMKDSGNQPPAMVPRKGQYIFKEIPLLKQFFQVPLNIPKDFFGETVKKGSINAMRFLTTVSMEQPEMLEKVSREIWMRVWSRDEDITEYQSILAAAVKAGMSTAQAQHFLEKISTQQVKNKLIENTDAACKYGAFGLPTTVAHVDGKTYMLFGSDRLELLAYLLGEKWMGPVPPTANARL
Sequence of Suclg2_IPI:IPI00459487.3 (mouse) (Q9Z2I8 39-433 limits assumed): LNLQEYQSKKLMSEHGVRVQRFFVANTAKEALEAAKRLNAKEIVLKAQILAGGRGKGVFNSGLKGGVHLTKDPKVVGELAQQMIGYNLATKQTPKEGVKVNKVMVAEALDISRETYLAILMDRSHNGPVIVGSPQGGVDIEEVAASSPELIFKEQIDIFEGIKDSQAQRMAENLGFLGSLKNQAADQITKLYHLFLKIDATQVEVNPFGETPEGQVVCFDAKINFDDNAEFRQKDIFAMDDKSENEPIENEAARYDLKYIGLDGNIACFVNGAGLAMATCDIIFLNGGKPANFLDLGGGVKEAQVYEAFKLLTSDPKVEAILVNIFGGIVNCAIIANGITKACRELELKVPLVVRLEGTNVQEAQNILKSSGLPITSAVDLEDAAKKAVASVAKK
Sequence of Slc25a10_IPI:IPI00317074.3 (mouse) (Q9QZD8 whole entry): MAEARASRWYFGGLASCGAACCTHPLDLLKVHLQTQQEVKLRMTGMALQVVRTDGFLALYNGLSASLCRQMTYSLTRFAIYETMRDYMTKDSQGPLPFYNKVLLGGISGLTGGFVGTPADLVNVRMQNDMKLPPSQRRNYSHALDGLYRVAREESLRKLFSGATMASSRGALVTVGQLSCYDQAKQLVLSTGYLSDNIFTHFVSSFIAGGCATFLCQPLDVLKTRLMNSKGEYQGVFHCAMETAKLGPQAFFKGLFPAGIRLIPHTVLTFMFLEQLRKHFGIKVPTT
Sequence of Rdh14_IPI:IPI00112377.1 (mouse) (Q9ERI6 whole entry): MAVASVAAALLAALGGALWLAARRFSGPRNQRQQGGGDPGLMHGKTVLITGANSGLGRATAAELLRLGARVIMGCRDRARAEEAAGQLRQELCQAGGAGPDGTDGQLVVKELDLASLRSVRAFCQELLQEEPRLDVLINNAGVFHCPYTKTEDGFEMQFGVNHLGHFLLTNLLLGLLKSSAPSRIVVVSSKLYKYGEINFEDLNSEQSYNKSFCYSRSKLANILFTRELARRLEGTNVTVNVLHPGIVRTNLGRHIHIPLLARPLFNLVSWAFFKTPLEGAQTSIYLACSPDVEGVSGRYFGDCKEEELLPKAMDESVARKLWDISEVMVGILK
Sequence of Oxa1l_IPI:IPI00308001.1 (mouse) (Q8BGA9 whole entry): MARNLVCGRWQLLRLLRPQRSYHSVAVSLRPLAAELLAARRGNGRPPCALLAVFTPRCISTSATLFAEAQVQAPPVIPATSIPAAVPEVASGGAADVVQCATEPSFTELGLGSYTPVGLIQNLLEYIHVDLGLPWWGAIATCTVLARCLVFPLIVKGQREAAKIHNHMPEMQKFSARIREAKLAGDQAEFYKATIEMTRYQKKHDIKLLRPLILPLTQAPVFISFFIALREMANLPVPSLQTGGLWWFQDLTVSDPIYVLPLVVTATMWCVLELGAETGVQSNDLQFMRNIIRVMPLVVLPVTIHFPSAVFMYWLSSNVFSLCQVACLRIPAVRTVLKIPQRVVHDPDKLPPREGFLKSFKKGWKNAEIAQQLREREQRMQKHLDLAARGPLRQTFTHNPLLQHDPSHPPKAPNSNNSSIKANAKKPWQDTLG
Sequence of Hsdl1_IPI:IPI00225301.1 (mouse) (Q8BTX9 2-330 limits assumed): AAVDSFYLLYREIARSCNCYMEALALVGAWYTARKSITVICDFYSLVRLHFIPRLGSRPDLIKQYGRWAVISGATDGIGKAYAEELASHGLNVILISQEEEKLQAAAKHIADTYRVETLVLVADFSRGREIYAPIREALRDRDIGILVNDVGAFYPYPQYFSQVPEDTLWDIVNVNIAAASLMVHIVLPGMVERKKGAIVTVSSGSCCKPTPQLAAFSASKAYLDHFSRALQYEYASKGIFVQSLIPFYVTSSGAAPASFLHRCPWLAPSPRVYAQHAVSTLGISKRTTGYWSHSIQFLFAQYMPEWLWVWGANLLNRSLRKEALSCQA
Sequence of Gnao1_IPI:IPI00115546.4 (mouse) (P18872 2-354 limits assumed): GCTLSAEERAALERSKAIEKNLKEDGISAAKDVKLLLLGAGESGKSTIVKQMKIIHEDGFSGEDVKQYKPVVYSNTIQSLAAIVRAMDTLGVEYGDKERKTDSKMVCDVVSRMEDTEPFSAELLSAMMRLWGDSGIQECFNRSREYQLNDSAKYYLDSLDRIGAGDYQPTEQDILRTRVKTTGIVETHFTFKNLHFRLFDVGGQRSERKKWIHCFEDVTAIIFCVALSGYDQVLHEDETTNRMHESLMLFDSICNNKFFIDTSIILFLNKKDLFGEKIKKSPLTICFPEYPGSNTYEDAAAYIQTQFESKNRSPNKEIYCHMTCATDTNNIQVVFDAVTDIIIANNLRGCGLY
Sequence of 1700020C11Rik_IPI:IPI00315908.1 (mouse) (Q9CRB8 whole entry): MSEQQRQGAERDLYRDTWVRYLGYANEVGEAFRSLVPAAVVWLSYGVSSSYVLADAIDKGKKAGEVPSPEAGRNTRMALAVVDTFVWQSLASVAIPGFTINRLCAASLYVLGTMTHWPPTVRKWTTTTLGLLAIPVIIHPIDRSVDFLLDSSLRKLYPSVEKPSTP
Sequence of Ppdpf_IPI:IPI00133078.1 (mouse) (Q9CR37 whole entry): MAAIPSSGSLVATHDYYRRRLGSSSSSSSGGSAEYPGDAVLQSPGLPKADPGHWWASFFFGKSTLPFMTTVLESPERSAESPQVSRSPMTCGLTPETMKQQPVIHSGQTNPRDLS
Sequence of Prdx3_IPI:IPI00116192.1 (mouse) (P20108 63-257 limits assumed): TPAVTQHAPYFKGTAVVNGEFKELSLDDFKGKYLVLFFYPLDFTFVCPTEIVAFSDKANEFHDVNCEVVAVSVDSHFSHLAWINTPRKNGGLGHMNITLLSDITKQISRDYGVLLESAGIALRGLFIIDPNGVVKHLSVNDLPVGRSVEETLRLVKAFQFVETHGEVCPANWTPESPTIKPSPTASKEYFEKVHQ
Sequence of Nsf_IPI:IPI00656325.2 (mouse) (P46460 whole entry): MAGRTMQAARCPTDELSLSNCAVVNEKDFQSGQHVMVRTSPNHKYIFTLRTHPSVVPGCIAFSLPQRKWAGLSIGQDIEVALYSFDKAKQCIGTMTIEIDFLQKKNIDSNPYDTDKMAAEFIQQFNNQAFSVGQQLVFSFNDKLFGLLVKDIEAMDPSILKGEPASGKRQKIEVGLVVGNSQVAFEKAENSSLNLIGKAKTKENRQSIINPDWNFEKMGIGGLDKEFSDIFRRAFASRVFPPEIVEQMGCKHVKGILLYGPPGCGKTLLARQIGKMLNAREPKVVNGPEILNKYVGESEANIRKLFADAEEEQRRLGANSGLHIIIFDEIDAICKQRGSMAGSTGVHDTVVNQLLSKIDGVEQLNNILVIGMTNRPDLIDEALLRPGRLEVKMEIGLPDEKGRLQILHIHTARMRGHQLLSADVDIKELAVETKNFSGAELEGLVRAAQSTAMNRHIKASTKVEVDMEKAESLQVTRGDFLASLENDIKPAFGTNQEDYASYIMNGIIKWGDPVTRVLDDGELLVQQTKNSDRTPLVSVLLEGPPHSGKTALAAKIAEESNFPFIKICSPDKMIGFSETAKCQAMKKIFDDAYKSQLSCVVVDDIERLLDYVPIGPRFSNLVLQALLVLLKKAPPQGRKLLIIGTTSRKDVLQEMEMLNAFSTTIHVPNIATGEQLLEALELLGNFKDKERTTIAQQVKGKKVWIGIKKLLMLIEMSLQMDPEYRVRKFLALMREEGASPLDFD
Sequence of Lyrm7_IPI:IPI00117832.1 (mouse) (Q9DA03 whole entry): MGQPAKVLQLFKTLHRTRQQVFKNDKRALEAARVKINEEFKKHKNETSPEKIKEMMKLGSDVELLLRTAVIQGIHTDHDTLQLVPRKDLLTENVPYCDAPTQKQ
Sequence of Nubpl_IPI:IPI00317709.1 (mouse) (Q9CWD8 39-319 limits assumed): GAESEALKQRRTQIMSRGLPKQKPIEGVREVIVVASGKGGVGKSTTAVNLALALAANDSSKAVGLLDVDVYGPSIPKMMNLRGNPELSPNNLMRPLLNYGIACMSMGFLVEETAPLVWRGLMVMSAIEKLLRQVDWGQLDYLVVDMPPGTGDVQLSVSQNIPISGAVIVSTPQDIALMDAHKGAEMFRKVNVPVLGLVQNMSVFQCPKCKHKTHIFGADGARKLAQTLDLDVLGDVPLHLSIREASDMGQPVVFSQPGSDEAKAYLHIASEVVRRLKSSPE
Sequence of Etfa_IPI:IPI00116753.4 (mouse) (Q99LC5 20-333 limits assumed): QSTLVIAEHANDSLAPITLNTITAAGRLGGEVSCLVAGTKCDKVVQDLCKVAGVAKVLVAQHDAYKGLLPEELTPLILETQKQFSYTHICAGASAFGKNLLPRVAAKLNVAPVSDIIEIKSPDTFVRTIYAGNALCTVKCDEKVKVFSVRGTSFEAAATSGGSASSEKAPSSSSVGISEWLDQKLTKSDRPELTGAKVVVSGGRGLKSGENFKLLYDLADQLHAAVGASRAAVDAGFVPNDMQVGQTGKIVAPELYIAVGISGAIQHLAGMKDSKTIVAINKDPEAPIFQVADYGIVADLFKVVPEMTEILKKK

A No. of total peptides [1] of 1 peptides, a No. of unique peptides [1] of 1 peptides and a No. of total peptides [2] of 1 peptides were found for “GST-Httex1-97Q (from UniProt P08515 1-218; P42858 1-88)” in this work. For the same substance, the No. of unique peptides [2] was 1 peptides, the No. of total peptides [3] was 1 peptides and the No. of unique peptides [3] was 1 peptides. The No. of total peptides [4] was 2 peptides, the No. of unique peptides [4] was 2 peptides and the No. of total peptides [5] was 1 peptides. For the same substance, the No. of unique peptides [5] was 1 peptides, the No. of total peptides [6] was 2 peptides and the No. of unique peptides [6] was 2 peptides. It also gave a No. of total peptides [7] of 7 peptides, a No. of unique peptides [7] of 6 peptides and a No. of total peptides [8] of 4 peptides. The No. of unique peptides [8] was 3 peptides, the No. of total peptides [9] was 1 peptides and the No. of unique peptides [9] was 1 peptides. The No. of total peptides [10] was 3 peptides, the No. of unique peptides [10] was 3 peptides and the No. of total peptides [11] was 1 peptides. The No. of unique peptides [11] was 1 peptides, the No. of total peptides [12] was 1 peptides and the No. of unique peptides [12] was 1 peptides. For the same substance, the No. of total peptides [13] was 1 peptides, the No. of unique peptides [13] was 1 peptides and the No. of total peptides [14] was 2 peptides. For the same substance, the No. of unique peptides [14] was 2 peptides, the No. of total peptides [15] was 2 peptides and the No. of unique peptides [15] was 2 peptides. For the same substance, the No. of total peptides [16] was 1 peptides, the No. of unique peptides [16] was 1 peptides and the No. of total peptides [17] was 4 peptides. The No. of unique peptides [17] was 4 peptides, the No. of total peptides [18] was 3 peptides and the No. of unique peptides [18] was 3 peptides. The No. of total peptides [19] was 1 peptides, the No. of unique peptides [19] was 1 peptides and the No. of total peptides [20] was 1 peptides. The No. of unique peptides [20] was 1 peptides, the No. of total peptides [21] was 1 peptides and the No. of unique peptides [21] was 1 peptides. The No. of total peptides [22] was 1 peptides, the No. of unique peptides [22] was 1 peptides and the No. of total peptides [23] was 1 peptides. It also gave a No. of unique peptides [23] of 1 peptides, a No. of total peptides [24] of 4 peptides and a No. of unique peptides [24] of 4 peptides. It also gave a No. of total peptides [25] of 3 peptides, a No. of unique peptides [25] of 3 peptides and a No. of total peptides [26] of 1 peptides. For the same substance, the No. of unique peptides [26] was 1 peptides, the No. of total peptides [27] was 1 peptides and the No. of unique peptides [27] was 1 peptides. It also gave a No. of total peptides [28] of 2 peptides, a No. of unique peptides [28] of 2 peptides and a No. of total peptides [29] of 1 peptides. For the same substance, the No. of unique peptides [29] was 1 peptides, the No. of total peptides [30] was 1 peptides and the No. of unique peptides [30] was 1 peptides. It also gave a No. of total peptides [31] of 2 peptides, a No. of unique peptides [31] of 2 peptides and a No. of total peptides [32] of 1 peptides. For the same substance, the No. of unique peptides [32] was 1 peptides, the No. of total peptides [33] was 1 peptides and the No. of unique peptides [33] was 1 peptides.
